Results: patent EP2852397B1

Experiments:
[1] = target: human Nav1.2 (human) (UniProt Q99250); assay: cell-based or functional assay
[2] = target: human Nav1.7 (human) (UniProt Q15858); assay: cell-based or functional assay

recombinant Huwentoxin-IV (peptide)
IC50, veratridine-induced depolarization inhibition assay [1]: 342 nM
IC50, veratridine-induced depolarization inhibition assay [2]: 159 nM
IC50, veratridine-induced depolarization inhibition assay (FRET, FLIPR Tetra) [2]: 160 nM
ratio of IC50 for Nav1.2 to IC50 for Nav1.7 [2]: 2.14
